In publication doi:10.1101/2023.11.25.568662:

Assays:
[1] = target: 16 unique Boskar4 variants displayed on E. coli; test: flow cytometry on cells
[2] = target: bv2 displayed on E. coli (Intimin fusion); test: flow cytometry on cells

- fold increase of expression-normalized binding over Boskar4 [1]: 3 fold
- fold increase of expression-normalized binding over Boskar4 [2]: 37 fold
B1: biotinylated recombinant human G-CSFR (BioGCSFR) (receptor)
chain: ECGHISVSAPIVHLGDPITASCIIKQNCSHLDPEPQILWRLGAELQPGGRQQRLSDGTQESIITLPHLNHTQAFLSCCLNWGNSLQILDQVELRAGYPPAIPHNLSCLMNLTTSSLICQWEPGPETHLPTSFTLKSFKSRGNCQTQGDSILDCVPKDGQSHCCIPRKHLLLYQNMGIWVQAENALGTSMSPQLCLDPMDVVKLEPPMLRTMDPSPEAAPPQAGCLQLCWEPWQPGLHINQKCELRHKPQRGEASWALVGPLPLEALQYELCGLLPATAYTLQIRCIRWPLPGHWSDWSPSLELRTTERAPTVRLDTWWRQRQLDPRTVQLFWKPVPLEEDSGRIQGYVVSWRPSGQAGAILPLCNTTELSCTFHLPSEAQEVALVAYNSAGTSRPTPVVFSESRGPALTRLHAMARDPHSLWVGWEPPNPWPQGYVIEWGLGPPSASNSNKTWRMEQNGRATGFLLKENIRPFQLYEIIVTPLYQDTMGPSQHVYAYSQEMAPSHAPELHLKHIGKTWAQLEWVPEPPELGKSPLTHYTIFWTNAQNQSFSAILNASSRGFVLHGLEPASLYHIHLMAASQAGATNSTVLTLMTLTPEGSELH
modifications: biotin (Biotin-NHS, 1:20 molar ratio G-CSFR:Biotin-NHS)
